Laboratory results published in paper PMC3262080.

Target: HuR (UniProt Q15717 1-326)
Assay: fluorescence anisotropy

HuR, sequence (Q15717 whole entry): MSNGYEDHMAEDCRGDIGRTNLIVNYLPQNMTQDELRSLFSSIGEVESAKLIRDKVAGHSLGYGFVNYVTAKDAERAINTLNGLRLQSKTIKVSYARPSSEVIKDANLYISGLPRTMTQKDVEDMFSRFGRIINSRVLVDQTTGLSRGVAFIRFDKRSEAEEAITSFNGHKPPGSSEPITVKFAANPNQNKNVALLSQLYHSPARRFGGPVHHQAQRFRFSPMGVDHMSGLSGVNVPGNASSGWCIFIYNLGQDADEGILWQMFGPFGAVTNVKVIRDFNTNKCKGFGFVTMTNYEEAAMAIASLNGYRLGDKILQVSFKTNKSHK

B1: miR-16 (mature, 5'TMR-labeled) (ssRNA)
RNA: UAGCAGCACGUAAAUAUUGGCG
Kd: 120 ± 9 nM
